Literature values in publication PMC6222470.

Assays:
[1] = biological target: histone H4 H4K20me2 peptide (Homo sapiens) (UniProt P62805)
[2] = biological target: histone H3 H3K14ac peptide (Homo sapiens) (UniProt P68431)
[3] = biological target: histone H3K14ac peptide H3 tail peptide (Homo sapiens) (UniProt P68431)
[4] = biological target: histone H3 H3K36me3 peptide (Homo sapiens) (UniProt P68431)
[5] = biological target: histone H3.3K36me3 H3.3 peptide (Homo sapiens) (UniProt P84243)
histone H3.3K36me3 H3.3 peptide (Homo sapiens), sequence (P84243 20-43): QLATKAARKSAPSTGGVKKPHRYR

ZMYND11 PHD-BD-ZnF-PWWP, sequence (Q15326 100-371): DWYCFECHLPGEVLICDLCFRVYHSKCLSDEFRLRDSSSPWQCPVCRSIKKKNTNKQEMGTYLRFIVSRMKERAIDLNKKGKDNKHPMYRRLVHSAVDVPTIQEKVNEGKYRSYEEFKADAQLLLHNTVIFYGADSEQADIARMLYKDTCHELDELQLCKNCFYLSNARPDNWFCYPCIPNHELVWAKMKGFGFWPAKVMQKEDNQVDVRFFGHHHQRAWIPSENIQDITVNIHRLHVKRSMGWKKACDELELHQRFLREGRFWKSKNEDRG
BRM BD, sequence (P51531 1378-1506): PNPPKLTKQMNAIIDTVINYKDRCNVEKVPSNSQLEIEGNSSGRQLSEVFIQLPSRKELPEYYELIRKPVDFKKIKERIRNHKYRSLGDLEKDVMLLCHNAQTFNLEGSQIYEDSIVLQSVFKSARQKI
BRM BD BD, sequence (P51531 1378-1506): as above
53BP1 TTD, sequence (Q12888 1484-1603): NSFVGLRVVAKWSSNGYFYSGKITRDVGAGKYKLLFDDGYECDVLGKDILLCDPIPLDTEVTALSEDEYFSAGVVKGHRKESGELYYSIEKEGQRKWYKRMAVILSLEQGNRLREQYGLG
PHF1 Tudor, sequence (O43189 26-89): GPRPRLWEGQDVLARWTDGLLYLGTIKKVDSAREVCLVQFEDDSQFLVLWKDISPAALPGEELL

In the case of 53BP1 TTD (from UniProt Q12888), the Kd [1] is given as 19.7 µM.
In the case of BRM BD (from UniProt P51531), the Kd [2] is listed as 900 µM.
In the case of BRM BD BD (from UniProt P51531), the Kd [3] is given as 900 µM.
For PHF1 Tudor (from UniProt O43189), the Kd [4] is listed as 36 µM.
For “ZMYND11 PHD-BD-ZnF-PWWP (from UniProt Q15326)”, the Kd [5] is listed as 56 µM.
